# Data as given in the supplement of paper PMC11780869.
# Test system: Bacillus subtilis
# Experiment: cleaved RNA product abundance (RNA/gDNA barcode ratio) relative to median wild-type variant (ratio to wild type); higher = more accumulation of the downstream cleavage product
# Settings: cleavage site: cggR-gapA (positions -7 to +36 mutated)
# Outline: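 Cleaved product abundance was measured with barcoded reporter mRNAs (truncated aprE or tetM) carrying mutagenized RNase Y cleavage-site windows in the B. subtilis chromosome. Cultures in LB at 37°C grew from OD600 0.0003 to 0.3. Gel-selected cleaved RNA was reverse transcribed and barcode-sequenced with genomic DNA barcodes, and the RNA:gDNA barcode ratio per construct was scaled to the median construct bearing the unmutated site.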
# [1] = experiment (reporter, strain, medium): exp 4a: truncated aprE reporter, strain BJT201 with 2% xylose (RNase J1 expressed)
# [2] = experiment (reporter, strain, medium): exp 2b: truncated aprE reporter, strain BJT200
Sequence,cleaved RNA product abundance [1],cleaved RNA product abundance [2],"cleaved RNA product abundance (experiment (reporter, strain, medium): exp 6: tetM reporter, strain 168)"
ACAGACGAAGGAGCCGCAAAGAAGTTATTAAGGGAAGAATTATCCCTCAATATAAATATCTCTCACTTATTTAAA,0.771,,
ACAGACGAAGGAGCCGCAAAGAAGTTATTAAGGGAAGACTAATCCCTCAATATAAATATCTCTCACTTATTTAAA,0.452,,
ACAGACGAAGGAGCCGCAAAGAAGTTATTAAGGGAAGCATAATCCCTCAATATAAATATCTCTCACTTATTTAAA,0.551,,
ACAGACGAAGGAGCCGCAAAGAAGTTATTAAGGGAAGTATAATCCCTCAATATAAATATCTCTCACTTATTTAAA,,0.599,
ACAGACGAAGGAGCCGCAAAGAAGTTATTAAGGGAATAATAATCCCTCAATATAAATATCTCTCACTTATTTAAA,0.934,0.811,
ACAGACGAAGGAGCCGCAAAGAAGTTATTAAGGGAATGAATAATCCCTCAATATAAATATCTCTCACTTATTTAA,0.604,,
ACAGACGAAGGAGCCGCAAAGAAGTTATTAAGGGACAAATAATCCCTCAATATAAATATCTCTCACTTATTTAAA,0.84,,
ACAGACGAAGGAGCCGCAAAGAAGTTATTAAGGGACGAATAAACCCTCAATATAAATATCTCTCACTTATTTAAA,0.237,0.197,
ACAGACGAAGGAGCCGCAAAGAAGTTATTAAGGGACGAATAACCCCTCAATATAAATATCTCTCACTTATTTAAA,0.19,,
ACAGACGAAGGAGCCGCAAAGAAGTTATTAAGGGACGAATAATACCTCAATATAAATATCTCTCACTTATTTAAA,0.12,,
ACAGACGAAGGAGCCGCAAAGAAGTTATTAAGGGACGAATAATCAATCAATATAAATATCTCTCACTTATTTAAA,0.132,,
ACAGACGAAGGAGCCGCAAAGAAGTTATTAAGGGACGAATAATCACTCAATATAAATATCTCTCACTTATTTAAA,0.0856,,
ACAGACGAAGGAGCCGCAAAGAAGTTATTAAGGGACGAATAATCCATCAATATAAATATCTCTCACTTATTTAAA,0.0728,,
ACAGACGAAGGAGCCGCAAAGAAGTTATTAAGGGACGAATAATCCCACAATATAAATATCTCTCACTTATTTAAA,,0.13,
ACAGACGAAGGAGCCGCAAAGAAGTTATTAAGGGACGAATAATCCCGCAATATAAATATCTCTCACTTATTTAAA,0.132,,
ACAGACGAAGGAGCCGCAAAGAAGTTATTAAGGGACGAATAATCCCTAAATATAAATATCTCTCACTTATTTAAA,0.287,,
ACAGACGAAGGAGCCGCAAAGAAGTTATTAAGGGACGAATAATCCCTCAAAATAAATATCTCTCACTTATTTAAA,0.346,,

Sequence,cleaved RNA product abundance [1],cleaved RNA product abundance [2],"cleaved RNA product abundance (experiment (reporter, strain, medium): exp 6: tetM reporter, strain 168)"
ACAGACGAAGGAGCCGCAAAGAAGTTATTAAGGGACGAATAATCCCTCAATATAAATAGCTCTCACTTATTTAAA,0.3,,
ACAGACGAAGGAGCCGCAAAGAAGTTATTAAGGGACGAATAATCCCTCAATATAAATATCTCTCACTTATTTAAA,0.697,0.691,0.805
ACAGACGAAGGAGCCGCAAAGAAGTTATTAAGGGACGAATAATCCCTCAATATAAATCTCTCTCACTTATTTAAA,0.53,,
ACAGACGAAGGAGCCGCAAAGAAGTTATTAAGGGACGAATAATCCCTCAATATAAATTTCTCTCACTTATTTAAA,0.559,,
ACAGACGAAGGAGCCGCAAAGAAGTTATTAAGGGACGAATAATCCCTCAATATATATATCTCTCACTTATTTAAA,0.771,0.629,
ACAGACGAAGGAGCCGCAAAGAAGTTATTAAGGGACGAATAATCCCTCAATCTAAATATCTCTCACTTATTTAAA,0.0944,,
ACAGACGAAGGAGCCGCAAAGAAGTTATTAAGGGACGAATAATCCCTCAGTATAAATATCTCTCACTTATTTAAA,0.415,,
ACAGACGAAGGAGCCGCAAAGAAGTTATTAAGGGACGAATAATCCCTCATTATAAATATCTCTCACTTATTTAAA,0.326,0.215,
ACAGACGAAGGAGCCGCAAAGAAGTTATTAAGGGACGAATAATCCCTCCATATAAATATCTCTCACTTATTTAAA,0.255,,
ACAGACGAAGGAGCCGCAAAGAAGTTATTAAGGGACGAATAATCCGTCAATATAAATATCTCTCACTTATTTAAA,0.072,0.0596,
ACAGACGAAGGAGCCGCAAAGAAGTTATTAAGGGACGAATAATCCTTCAATATAAATATCTCTCACTTATTTAAA,0.217,0.146,
ACAGACGAAGGAGCCGCAAAGAAGTTATTAAGGGACGAATAATCGCTCAATATAAATATCTCTCACTTATTTAAA,0.0681,,
ACAGACGAAGGAGCCGCAAAGAAGTTATTAAGGGACGAATAATCTCTCAATATAAATATCTCTCACTTATTTAAA,,0.139,
ACAGACGAAGGAGCCGCAAAGAAGTTATTAAGGGACGAATAATTCCTCAATATAAATATCTCTCACTTATTTAAA,0.192,0.126,
ACAGACGAAGGAGCCGCAAAGAAGTTATTAAGGGACGAATAGTCCCTCAATATAAATATCTCTCACTTATTTAAA,,0.905,
ACAGACGAAGGAGCCGCAAAGAAGTTATTAAGGGACGAATATTCCCTCAATATAAATATCTCTCACTTATTTAAA,0.525,,
